The target of assay [1] is T1, Ang2 immobilized on a biosensor (Octet off-rate screening) (Homo sapiens (Human), UniProt O15123 19-496).
T1 construct: also called Ang2 antigen; not shown: It is a His tag if hAng2-his (R&D 623-AN/CF) was used, or an Fc if hAng2-Fc (PharmAbcine) was used
T1 sequence: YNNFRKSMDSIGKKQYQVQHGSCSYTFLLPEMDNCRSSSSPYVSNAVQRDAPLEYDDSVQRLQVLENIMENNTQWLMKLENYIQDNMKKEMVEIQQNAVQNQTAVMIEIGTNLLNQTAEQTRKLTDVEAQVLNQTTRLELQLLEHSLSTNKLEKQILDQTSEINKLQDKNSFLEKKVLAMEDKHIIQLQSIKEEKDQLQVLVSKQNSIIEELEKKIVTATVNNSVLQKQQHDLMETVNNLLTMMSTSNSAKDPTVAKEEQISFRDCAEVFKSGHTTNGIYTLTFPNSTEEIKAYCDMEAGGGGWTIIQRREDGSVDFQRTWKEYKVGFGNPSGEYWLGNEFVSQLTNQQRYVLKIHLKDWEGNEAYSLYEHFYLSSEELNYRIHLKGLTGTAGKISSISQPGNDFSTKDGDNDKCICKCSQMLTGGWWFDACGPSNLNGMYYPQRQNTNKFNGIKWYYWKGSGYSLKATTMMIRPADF
As to the kind of experiment: dissociation rate screening of optimized clones (method as in Example 3, Octet; not restated). (In general: In BLI a coated tip is dipped into the sample, and binding shifts an interference pattern.)

Assay [2] concerns the target T2, His-tagged human Ang1 (R&D systems, 923-AN/CF) (human, UniProt Q15389 20-498, limits assumed).
T2 construct: Bought protein; also called hAng1-his; not shown: His tag
T2 sequence (looked up): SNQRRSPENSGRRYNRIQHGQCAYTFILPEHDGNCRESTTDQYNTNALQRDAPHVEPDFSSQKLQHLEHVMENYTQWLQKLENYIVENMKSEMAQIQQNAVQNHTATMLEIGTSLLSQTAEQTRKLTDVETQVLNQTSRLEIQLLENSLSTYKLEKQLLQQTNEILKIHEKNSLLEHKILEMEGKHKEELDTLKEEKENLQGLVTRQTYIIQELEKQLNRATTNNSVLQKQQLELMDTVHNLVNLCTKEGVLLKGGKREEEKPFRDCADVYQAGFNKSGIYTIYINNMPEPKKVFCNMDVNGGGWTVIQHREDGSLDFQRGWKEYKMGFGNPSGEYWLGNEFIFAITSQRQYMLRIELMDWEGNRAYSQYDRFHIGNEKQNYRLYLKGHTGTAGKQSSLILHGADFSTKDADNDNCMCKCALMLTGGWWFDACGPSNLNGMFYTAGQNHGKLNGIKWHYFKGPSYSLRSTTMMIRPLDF
The assay is described as follows: phage ELISA, antigen coated at 1 µg/ml, anti-M13-HRP. (An ELISA detects its analyte on a solid surface through an enzyme-linked reagent.)

For assay [3], the target named is Ang2 immobilized on a biosensor (Octet off-rate screening) (Homo sapiens (Human)) (UniProt O15123). As to the kind of experiment: dissociation rate screening of optimized clones (method as in Example 3, Octet; not restated).

Results on four molecules are retold here after US20220204603A1 (PHARMABCINE, published 2022).

B1: No. O10 optimized clone (screening of scFv phage library of No. 8 CDR3 variants) (scFv, V domains shown)
VH: QVQLVESGGGLVKPGGSLRLSCAASGFTFSSYSMNWVRQAPGKGLEWVSSISASDGATYYADSVRGRFTISRDNSRSTLYLQMNSLRAEDTAVYYCAKILVGYSGPMGGMDVWGQGTTVTVSS
VL: DIQMTQSPSSLSASVGDRVTITCRASRDISNYLAWYQQKPGKAPKSLIYGASNLQSGVSSQFSGSGSGTDFTLTINSLQPEDSATYYCQQYYSYPLTFGGGTKVDIKR
In general, koff refers to the rate constant with which the complex falls apart. Low values mean a long-lived complex, high ones a short-lived complex. As for B1, in assay [1], the koff came to 3.92e-05 s⁻¹.

B2: No. O12 optimized clone (screening of scFv phage library of No. 8 CDR3 variants) (scFv, V domains shown)
VH: QVQLVESGGGLVKPGGSLRLSCAASGFTFSSYSMNWVRQAPGKGLEWVSSISASDGATYYADSVRGRFTISRDNSRSTLYLQMNSLRAEDTAVYYCAKSLASYSGPMGGMDVWGQGTTVTVSS
VL: DIQMTQSPSSLSASVGDRVTITCRASRDISNYLAWYQQKPGKAPKSLIYGASNLQSGVSSQFSGSGSGTDFTLTINSLQPEDSATYYCQQYYSYPLTFGGGTKVDIKR
On to B2, for which the koff in assay [1] was determined as 1.7e-05 s⁻¹.

B3: No. 3 monoclonal scFv phage (scFv)
chain: QMQLVQSGGGLVQPGRSLKLSCAASGFSFDDYAMHWVRQAPGKGLEWVATIKDDGSQTYYVDSVKGRFTISRDNAKSSLFLQMNSLRAEDTAVYYCTTEGLMNGLHFDMWGQGTMVTVSSLVLTQPPSVSGAPGQGVTISCTGSSSNIGAGYDVHWYQQFPGTAPKLLISGNNNRPSGLPDRFSGSKSGTSASLAITGLQAEDEADYYCQSYDSRLGVVFGGGTKLTVLG
B3 displayed an OD in assay [2] of 0.025 OD.

B4: No. O4 optimized clone (screening of scFv phage library of No. 8 CDR3 variants) (scFv, part only; not given: scFv linker, part only)
scFv, part: QVQLVESGGGLVKPGGSLRLSCAASGFTFSSYSMNWVRQAPGKGLEWVSSISASDGATYYADSVRGRFTISRDNSRSTLYLQMNSLRAEDTAVYYCAKTLAGYSGPMGGMDVWGQGTTVTVSSDIQMTQSPSSLSASVGDRVTITCRASRDISNYLAWYQQKPGKAPKSLIYGASNLQSGVSSQFSGSGSGTDFTLTINSLQPEDSATYYCQQYYSYPLTFGGGTKVDIKR
With B4, the koff in assay [3] turned out to be 9.01e-05 s⁻¹.
